Laboratory results published in PMC9485235, “Structural insights into cyanobacterial RuBisCO assembly coordinated by two chaperones Raf1 and RbcX” (Cell Discovery, 2022).

Experiments:
[1] = target: T1, Anabaena sp. PCC 7120 RbcL-Raf1 complex (RbcL8Raf1_(8)) (Anabaena sp. PCC 7120, UniProt P00879 1-476; Q8YLP6 1-361); test: native gel or EMSA; RuBisCO assembly assays: 0.5 µM L8F8 or L8F8X16 mixed with Flag-RbcS (0-10-fold to RbcL), with or without pre-incubation with 8 µM RbcX or RbcX^E32A&R69A or RbcX2 at 0-1 fold to RbcL; 25 °C, 20 mM Tris-HCl pH 8.0, 300 mM NaCl, 5 mM MgCl2, 5% glycerol; ~0.5 h; 6% native-PAGE, bands analysed by SDS-PAGE; details: both partners purified
T1 construct: RbcL, Anabaena sp; as m1; plasmid pET19-His-RbcL–Raf1; Raf1, Anabaena sp; as m2; The preparation holds L8F8 and a fraction of L2F2 on native-PAGE; also called L8F8; L2F2 (smaller form in the same preparation); copies: 8 + 8

[2] = target: the molecule itself; test: cryo-EM structure; RbcL–Raf1–RbcX ternary complex co-expressed in E. coli with GroEL-GroES, purified by Ni-NTA and gel filtration in 50 mM Tris-HCl pH 8.0, 20 mM NaCl, 5 mM MgCl2; ~2 mg/mL; D4 symmetry; 3.3 Å

T1 sequence (Q8YLP6 whole entry, one chain of several): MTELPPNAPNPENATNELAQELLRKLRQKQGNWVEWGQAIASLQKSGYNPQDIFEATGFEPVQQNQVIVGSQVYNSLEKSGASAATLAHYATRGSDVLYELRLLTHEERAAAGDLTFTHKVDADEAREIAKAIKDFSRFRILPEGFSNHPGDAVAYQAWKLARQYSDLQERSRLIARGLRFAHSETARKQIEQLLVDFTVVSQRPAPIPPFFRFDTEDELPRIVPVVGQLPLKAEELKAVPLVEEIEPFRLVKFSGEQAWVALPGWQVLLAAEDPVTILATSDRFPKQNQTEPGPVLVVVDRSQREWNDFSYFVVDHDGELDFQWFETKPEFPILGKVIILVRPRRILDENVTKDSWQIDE

binding result [1] | Binder | stoichiometry N [2]
binds | Recombinant Anabaena sp. PCC 7120 Flag-RbcS (RuBisCO small subunit) (natural protein, UniProt P06514 1-109, looked up, RbcS, RuBisCO small subunit, Anabaena sp; coding region amplified from genomic DNA; plasmid pET19-Flag-RbcS; A His-RbcS was also made (pET19-His-RbcS); the assembly-assay methods name Flag-RbcS; source: E. coli BL21 (DE3), purified (anti-FLAG M2 gel, Superdex 75); also in lysate (holoenzyme co-purification)) MQTLPKERRYETLSYLPPLTDVQIEKQVQYILSQGYIPAVEFNEVSEPTELYWTLWKLPLFGAKTSREVLAEVQSCRSQYPGHYIRVVGFDNIKQCQILSFIVHKPSRY | –
– | RuBisCO large subunit RbcL from Anabaena sp. PCC 7120 (His-RbcL) (natural protein, UniProt P00879 1-476, looked up, RbcL, ribulose-1,5-bisphosphate carboxylase/oxygenase large subunit, Anabaena sp; coding region amplified from genomic DNA; plasmid pET19-His-RbcL; also called RbcL8 core; source: E. coli BL21 (DE3), co-expressed with GroEL-GroES and chaperones, purified (Ni-NTA, gel filtration); also in lysate (holoenzyme co-purification)) MSYAQTKTQTKSGYKAGVQDYRLTYYTPDYTPKDTDILAAFRVTPQPGVPFEEAAAAVAAESSTGTWTTVWTDLLTDLDRYKGRCYDIEPVPGEDNQFIAYIAYPLDLFEEGSITNVLTSIVGNVFGFKALRALRLEDIRFPVAYIKTFQGPPHGIQVERDKLNKYGRPLLGCTIKPKLGLSAKNYGRAVYECLRGGLDFTKDDENINSAPFQRWRDRFLFVADAITKAQAETGEIKGHYLNVTAPTCEEMLKRAEYAKELKQPIIMHDYLTAGFTANTTLARWCRDNGVLLHIHRAMHAVIDRQKNHGIHFRVLAKALRLSGGDHIHTGTVVGKLEGERGITMGFVDLLRENYVEQDKSRGIYFTQDWASLPGVMAVASGGIHVWHMPALVEIFGDDSVLQFGGGTLGHPWGNAPGATANRVALEACVQARNEGRNLAREGNDVIREAAKWSPELAVACELWKEIKFEFEAMDTV | 8
– | RbcX from Anabaena sp. PCC 7120, co-expressed in the ternary complex (natural protein, RbcX, RuBisCO chaperone, Anabaena sp; coding region amplified from genomic DNA; plasmid pCDFduet-GroEL-GroES-RbcX-Raf1; No tag is named for this RbcX in the plasmid name; also called RbcX2 (dimer); source: E. coli BL21 (DE3), co-expressed with His-RbcL, Raf1 and GroEL-GroES, co-purified (Ni-NTA, gel filtration)) MNLKQIAKDTAKTLQSYLTYQALMTVLAQLGETNPPLALWLHTFSVGKVQDGEAYVKELFREQPDLALRIMTVREHIAEEVAEFLPEMVRSGIQQANMEQRRQHLERMTHLSLSNPSPESEQQTISDTDWDH | 2
